Test [1] addresses T1, ΔCRD1-3 (human, UniProt P43489).
T1 construct: extracellular domain without CRD1, CRD2 and CRD3 (CRD4 left); also called truncated OX40 variant lacking CRD1, CRD2 and CRD3
T1 sequence (truncated extracellular domain, looked up): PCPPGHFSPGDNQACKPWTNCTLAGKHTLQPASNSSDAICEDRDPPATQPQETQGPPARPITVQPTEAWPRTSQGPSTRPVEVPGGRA
Put plainly: ELISA, OX40 variant coated at 1 µg/ml, HRP-labeled secondary antibody, OD 450 nm. An excerpt: The 4 cysteine rich domains (CRD) from OX40 extracellular domain were identified from UniProt (Identifier: P43489), and full length of extracellular OX40 (CRD1-4) and truncated OX40 variants ΔCRD1 (lacking CRD1), ΔCRD1-2 (lacking CRD1 and CRD2), ΔCRD1-3 (lacking CRD1, CRD2 and CRD3), mCRD1 (CRD1-4 with CRD1 domain therein replaced by murine CRD1), mCRD2 (CRD1-4 with CRD2 domain therein replaced by murine CRD2), mCRD3 (CRD1-4 with CRD3 domain therein replaced by murine CRD3), and mCRD4 (CRD1-4 with CRD4 domain therein replaced by murine CRD4) were synthesized by Biointron. The binding of HuEM1007-044-16, OX40-Tab1 (WO2015153513), OX40-Tab2 (WO2020151761) to OX40 or OX40 truncated proteins were analyzed using ELISA to identify the pertinent binding epitope. Briefly, OX40 variants were each coated at 1 μg/ml onto a 96 well plate (Corning, #3361) which was incubated overnight at 4° C., washed with PBS containing 0.05% Tween 20, blocked with blocking buffer (PBS containing 0.05% Tween 20 and 2% BSA) at 37° C. for 2 hours. On the coated and blocked plate, serially diluted antibodies were added and incubated at 37° C. for 1 hour, washed for 3 times, then added HRP-labeled secondary antibody. Tetramethylbenzidine (TMB) chromogenic solution was added for color development for 5 minutes then the reaction was quench with 1M HCl. Absorbance at 450 nm (OD450) was measured on a microplate reader.
In general terms: In an ELISA, binding on a coated surface is turned into a signal by an enzyme label.

The target in test [2] is T2, human OX40 on cells (CHO-K1-hOX40, CHO-OX40, Jurkat-OX40 reporter cells) (human, UniProt P43489 29-277).
T2 construct: also called human OX40-transfected CHO cell; CD134
T2 sequence: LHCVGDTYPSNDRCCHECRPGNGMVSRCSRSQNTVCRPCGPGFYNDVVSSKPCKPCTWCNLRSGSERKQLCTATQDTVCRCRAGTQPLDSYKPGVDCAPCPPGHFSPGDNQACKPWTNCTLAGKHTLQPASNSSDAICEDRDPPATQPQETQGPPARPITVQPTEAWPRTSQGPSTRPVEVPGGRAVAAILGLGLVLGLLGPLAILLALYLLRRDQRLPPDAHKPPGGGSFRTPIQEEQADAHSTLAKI
The test is described as follows: FACS on human OX40 transfected CHO cells. The method, then:
Cell binding affinity of PD-L1/OX40 antibodies were measured against CHO (ATCC, #CCL-61) overexpressing human PD-L1 (CHO-PD-L1) and CHO overexpressing OX40 (CHO-OX40), respectively. Briefly, 5×10⁵ cells were seeded into each well of a 96-well plate (Corning, #3799). Cells were centrifuged at 400 g for 5 minutes and supernatants were discarded. For each well, 100 μl of 3× serial dilution of antibodies starting from 100 nM were then added and mixed with the cells. After 60 minutes of 4° C. incubation, plates were washed several times to remove excess antibodies. […] After another round of centrifugation and washing, cells were resuspended in FACS buffer for reading on a CytoFLEX Flow Cytometer (Beckman Coulter). Median Fluorescence Intensity (MFI) readouts were plotted against antibody concentration and analyzed with GraphPad Prism 8.0.

The target of test [3] is T3, recombinant human OX40/His fusion protein (Novoprotein, CB17) (human, UniProt P43489 29-216).
T3 construct: Bought protein
T3 sequence: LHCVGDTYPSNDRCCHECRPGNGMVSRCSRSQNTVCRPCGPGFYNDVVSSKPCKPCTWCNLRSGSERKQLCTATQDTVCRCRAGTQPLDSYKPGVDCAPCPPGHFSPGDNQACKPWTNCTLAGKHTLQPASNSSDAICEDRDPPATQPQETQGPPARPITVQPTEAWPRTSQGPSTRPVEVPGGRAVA
Put plainly: BLI (Octet RED96), antibody on AHC sensor, OX40/His as analyte, test group 4. As to the method:
All 17 antibodies in Table 4 were expressed by transient transfection of HEK293 cell, purified by Protein A chromatography, and assayed for and ranked by dissociation rate constant (koff). Briefly, antibodies binding affinities and kinetics were characterized by Octet® RED96 biolayer interferometry (Pall FortéBio LLC). Antibodies were captured by Anti-hIgG Fc Capture (AHC) Biosensors (Pall) at a concentration of 100 nM for 120 seconds. After that, sensors were dipped into running buffer (1× pH 7.2 PBS, 0.05% Tween 20, 0.1% BSA) for 60 seconds to check the baseline, then dipped into recombinant human OX40/His fusion protein (Novoprotein, CB17) at assigned concentration for 200 seconds to measure binding, followed by dipped into running buffer for 600 seconds for dissociation. The assay was conducted in four test groups (as listed in Table 5) all containing the EM1007-044c chimeric antibody as the basis for normalization. The association and dissociation curves were fitted to a 1:1 Langmuir binding model using ForteBio Data Analysis software (Pall) to obtain the off-rate constants as shown in Table 5 below. The off-rate of each antibody was compared to that of the EM1007-mAb044c chimeric antibody in the same test group obtained in parallel to produce the corresponding off-rate ratio, serving as a normalized index. […]
A general note: In BLI a coated tip is dipped into the sample, and binding shifts an interference pattern.

B1: HuEM1007-044-16 (antibody, human IgG1, kappa, L234A L235A, V domains shown)
VH: EVQLQQSGAEVKKPGSSVKVSCKASGHAFSSSWMNWVKQRPGKGLEWIGRIYPGDEITNYNAKFKDKATLTADKSTSTAYMELSSLRSEDTAVYYCARDLLMPYWGQGTLVTVSS
VL: DIVMTQTPLSLPVTPGEPASISCRSSKSLLYSNAITYLYWYLQKPGQSPQLLIYQMSNLAPGVPDRFSSSGSGTDFTLKISRVEAEDVGVYYCAQNLELPFTFGQGTKLEIKR
notes: Humanized anti-OX40, human IgG1 LALA / kappa; parental antibody of FIT1014-20a; also called HuEM1007-44-16; parental OX40 antibody
On to B1, for which the binding result in test [1] is on record as “no binding (tested: about 25 nM)”. Besides, the EC50 (as a rule, the concentration giving half of the maximal effect) in test [2] was found to be 1.8 nM. In test [3], the “Normalized Index (off-rate ratio to EM1007-mAb044c)” value is 126% and the koff (usually a measure of how fast the partners let go of each other) was 0.000352 s⁻¹.

Values taken from US20250282881A1 (SHANGHAI EPIMAB BIOTHERAPEUTICS, published 2025).
